Measured values as given in doi:10.1101/2025.09.26.678928.

Target: UhGpe1 (U. hordei)

Molecule	reporter activity in S. cerevisiae biosensor assays, percent activity [%]
SrPit2 peptide corresponding to the U. maydis activating motif	45
WWFGFTGSL [Pit2 core peptide (…)]	30
